# In patent US20180022800A1:
# Target: recombinant mouse OSM (mouse) (UniProt P53347)
# Assay: cell-based or functional assay
# UniProt P53347, sequence (P53347 24-206 limits assumed): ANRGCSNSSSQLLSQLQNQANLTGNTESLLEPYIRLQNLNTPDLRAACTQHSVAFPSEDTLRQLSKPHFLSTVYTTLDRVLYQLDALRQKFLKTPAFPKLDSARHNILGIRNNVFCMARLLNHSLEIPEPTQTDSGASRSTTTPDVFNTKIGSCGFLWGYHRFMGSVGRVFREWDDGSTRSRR
substance,measurement,value
O-RFP (recombinant murine OSM receptor fusion protein) (from UniProt O70458 24-426; Q00560 123-322) (Fc fusion),"molar ratio of neutralizing agent required for 50% neutralization (SOCS3 expression in mouse colonic fibroblasts treated with 10 ng/ml recombinant mouse OSM, 2 hours) (molar ratio (neutralizing agent:OSM))",1.7
